# From US9255132B2, “Angiopoietin derived peptides” (Compugen Ltd., priority 2008, dated 2016)
# “Also recorded” adds a separate entry of the source. Residues, ends and D or L forms follow the SMILES beside them.
# Legend:
# Conditions in all cases: CM5 chip, 10-50 μM peptide
# recombinant human Ang1 = target: T1, recombinant human Ang1 (Homo sapiens, UniProt Q15389); experiment: BIACORE (SPR) binding of peptides to immobilized recombinant Ang1
# T1 construct: purchased R&D Systems 923-AN-025/CF
# T1 sequence (Q15389 16-498): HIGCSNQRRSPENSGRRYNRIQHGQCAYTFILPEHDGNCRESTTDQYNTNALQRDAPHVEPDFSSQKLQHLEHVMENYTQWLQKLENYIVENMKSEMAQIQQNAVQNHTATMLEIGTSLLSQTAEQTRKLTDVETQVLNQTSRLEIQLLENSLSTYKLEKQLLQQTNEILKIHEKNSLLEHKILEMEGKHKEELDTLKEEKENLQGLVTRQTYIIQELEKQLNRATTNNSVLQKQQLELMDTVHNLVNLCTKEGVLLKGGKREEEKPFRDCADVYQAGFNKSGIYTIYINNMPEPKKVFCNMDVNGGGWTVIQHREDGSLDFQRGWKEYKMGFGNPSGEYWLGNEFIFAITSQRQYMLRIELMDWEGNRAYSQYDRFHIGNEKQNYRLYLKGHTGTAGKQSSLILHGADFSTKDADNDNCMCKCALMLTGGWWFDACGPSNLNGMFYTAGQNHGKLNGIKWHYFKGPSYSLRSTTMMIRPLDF
# Excerpt: (§1) The capability of CGEN-H2 [SEQ ID NO: 1], CGEN-H3 [SEQ ID NO: 2], CGEN-A8 [SEQ ID NO: 3], CGEN-H7 [SEQ ID NO: 4], CGEN-G4 [SEQ ID NO: 5], CGEN-G6 [SEQ ID NO: 6], CGEN-F9 [SEQ ID NO: 7], CGEN-F12 [SEQ ID NO: 8], CGEN-C6-30 [SEQ ID NO: 9], CGEN-All [SEQ ID NO: 10], and CGEN-G2 [SEQ ID NO: 11] to specifically bind to recombinant Ang1, Ang2, and Ang4 was investigated using the BIACORE technology, measuring protein-protein interaction and binding affinity (Wendler et al 2005, Anal Bioanal Chem, 381: 1056-1064). The technology is based on surface plasmon resonance (SPR), an optical phenomenon that enables detection of unlabeled interactants in real time. The SPR-based biosensors can be used in determination of active concentration, screening and characterization in terms of both affinity and kinetics.
# (§2) Peptide-protein binding was analyzed using surface plasmon resonance. Analysis of the to interaction between CGEN-H2 [SEQ ID NO: 1], CGEN-H3 [SEQ ID NO: 2], CGEN-A8 [SEQ ID NO: 3], CGEN-H7 [SEQ ID NO: 4], CGEN-G4 [SEQ ID NO: 5], CGEN-G6 [SEQ ID NO: 6], CGEN-F9 [SEQ ID NO: 7], CGEN-F12 [SEQ ID NO: 8], CGEN-C6 [SEQ ID NO: 9], CGEN-A11 [SEQ ID NO: 10], and CGEN-G2 [SEQ ID NO: 11] peptides and recombinant human Ang1 carrier-free (R&D Systems, Cat#923-AN-025/CF, Lot#FHW1507031), human Ang2 carrier-free (R&D Systems, Cat#623-AN-025/CF, Lot#BNO0457121), and human Ang4 carrier-free (R&D Systems, Cat#964-AN-025/CF, Lot#ELM025121) was conducted using the BIAcore biosensor (Pharmacia Biosensor, Uppsala, Sweden). The recombinant Ang1, Ang2, and Ang4 were immobilized directly to a CM5 sensor chip. Solutions containing 10-50 μM of CGEN-H2 [SEQ ID NO: 1], CGEN-H3 [SEQ ID NO: 2], CGEN-A8 [SEQ ID NO: 3], CGEN-H7 [SEQ ID NO: 4], CGEN-G4 [SEQ ID NO: 5], CGEN-G6 [SEQ ID NO: 6], CGEN-F9 [SEQ ID NO: 7], CGEN-F12 [SEQ ID NO: 8], CGEN-C6 [SEQ ID NO: 9], CGEN-A11 [SEQ ID NO: 10], and CGEN-G2 [SEQ ID NO: 11] peptides were injected into the sample chamber of the BIACORE device at a rate of […] and the interaction was monitored using surface plasmon resonance.
# (§3) Solutions containing different concentrations of CGEN-G6 [SEQ ID NO: 6], CGEN-F9 [SEQ ID NO: 7], CGEN-F12 [SEQ ID NO: 8], CGEN-A11 [SEQ ID NO: 10], and CGEN-G2 [SEQ ID NO: 11] peptides (as indicated in Table 2) were injected into the sample chamber of the BIACORE device at a rate of […] and the interaction was monitored using surface plasmon resonance. As a background, the solutions were also injected onto an empty flow cell with no immobilized ligand and the in binding levels achieved were subtracted. Data was analyzed using BIAevaluation software. The affinity constant of the interaction between CGEN-G6 [SEQ ID NO: 6], CGEN-F9 [SEQ ID NO: 7], CGEN-F12 [SEQ ID NO: 8], CGEN-C6 [SEQ ID NO: 9], CGEN-A11 [SEQ ID NO: 10], and CGEN-G2 [SEQ ID NO: 11] and Ang1, Ang2, or Ang4 was determined by direct kinetic analysis. The 1:1 Langmuir binding model was used to fit kinetic data.
# (§4) Table 2 summarizes results of analysis of CGEN-G6 [SEQ ID NO: 6], CGEN-F9 [SEQ ID NO: 7], CGEN-F12 [SEQ ID NO: 8], CGEN-A11 [SEQ ID NO: 10], and CGEN-G2 [SEQ ID NO: 11] interaction with Ang1, Ang2, or Ang4. Kinetic measurements were done at the indicated concentration range, and they are presented as KD (M). CGEN-F12 [SEQ ID NO: 8] bound to Ang1 and Ang4 with high affinity. The specificity of this binding is not clear.
# human Ang2 = target: T2, human Ang2 (Homo sapiens, UniProt O15123); experiment: BIACORE (SPR) binding of peptides to immobilized recombinant Ang2
# T2 construct: purchased R&D Systems 623-AN-025/CF
# T2 sequence (O15123 19-496): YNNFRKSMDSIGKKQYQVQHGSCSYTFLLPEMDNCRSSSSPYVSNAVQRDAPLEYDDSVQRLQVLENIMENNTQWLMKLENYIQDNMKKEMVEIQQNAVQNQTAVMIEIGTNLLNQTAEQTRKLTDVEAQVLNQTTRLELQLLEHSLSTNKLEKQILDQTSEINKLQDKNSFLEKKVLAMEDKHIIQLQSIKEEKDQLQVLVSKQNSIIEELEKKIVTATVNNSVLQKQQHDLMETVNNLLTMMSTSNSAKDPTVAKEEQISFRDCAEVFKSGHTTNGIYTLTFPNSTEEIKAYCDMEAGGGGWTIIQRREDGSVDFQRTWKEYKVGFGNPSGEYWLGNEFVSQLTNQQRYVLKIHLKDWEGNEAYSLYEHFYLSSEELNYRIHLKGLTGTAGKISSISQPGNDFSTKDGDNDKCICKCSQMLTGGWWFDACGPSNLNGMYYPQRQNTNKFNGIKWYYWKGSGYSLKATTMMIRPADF
# Excerpt: as §1, §2, §3, §4
# human Ang4 = target: T3, human Ang4 (Homo sapiens, UniProt Q9Y264); experiment: BIACORE (SPR) binding of peptides to immobilized recombinant Ang4
# T3 construct: purchased R&D Systems 964-AN-025/CF
# T3 sequence (Q9Y264 25-503): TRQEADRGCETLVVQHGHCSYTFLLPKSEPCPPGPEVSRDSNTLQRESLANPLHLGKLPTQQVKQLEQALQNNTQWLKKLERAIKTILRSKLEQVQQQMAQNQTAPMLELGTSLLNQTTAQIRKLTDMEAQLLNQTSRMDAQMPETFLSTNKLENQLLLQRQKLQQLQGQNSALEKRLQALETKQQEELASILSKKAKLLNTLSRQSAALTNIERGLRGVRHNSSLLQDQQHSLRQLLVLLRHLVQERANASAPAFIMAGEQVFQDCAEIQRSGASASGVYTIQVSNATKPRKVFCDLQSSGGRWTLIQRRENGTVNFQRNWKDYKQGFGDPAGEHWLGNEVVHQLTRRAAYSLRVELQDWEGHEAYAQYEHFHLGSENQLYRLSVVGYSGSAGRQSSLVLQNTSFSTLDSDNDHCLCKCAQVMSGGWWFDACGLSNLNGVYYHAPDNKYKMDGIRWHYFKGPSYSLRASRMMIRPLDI
# Excerpt: as §1, §2, §3, §4
Compound,binding to immobilized Ang1 (in words) (recombinant human Ang1),binding to immobilized Ang2 (in words) (human Ang2),binding to immobilized Ang4 (in words) (human Ang4)
"LMDTVHNLVNL (Ac-LMDTVHNLVNL-NH2) [CGEN-A8, amino acid residues 254-264 of angiopoietin 1]",none or low binding,none or low binding,none or low binding
"LKEEKENLQGLVTRQTYIIQELEKQLNRAT (Ac-LKEEKENLQGLVTRQTYIIQELEKQLNRAT-NH2) [CGEN-H2, amino acid residues 212-241 of angiopoietin 1]",none or low binding,none or low binding,none or low binding
"TNNSVLQKQQL (Ac-TNNSVLQKQQL-NH2) [CGEN-H3, amino acid residues 242-252 of angiopoietin 1]",none or low binding,none or low binding,none or low binding
"QLQVLVSKQNSIIEEL (Ac-QLQVLVSKQNSIIEEL-NH2) [CGEN-G4, amino acid residues 215-230 of angiopoietin 2]",none or low binding,none or low binding,none or low binding
CC(=O)N[C@@H](CCC(N)=O)C(=O)N[C@@H](Cc1c[nH]cn1)C(=O)N[C@@H](CO)C(=O)N[C@@H](CC(C)C)C(=O)N[C@@H](CCCNC(=N)N)C(=O)N[C@@H](CCC(N)=O)C(=O)N[C@@H](CC(C)C)C(=O)N[C@@H](CC(C)C)C(=O)N[C@H](C(=O)N[C@@H](CC(C)C)C(=O)N[C@@H](CC(C)C)C(=O)N[C@@H](CCCNC(=N)N)C(=O)N[C@@H](Cc1c[nH]cn1)C(=O)N[C@@H](CC(C)C)C(=O)N[C@H](C(=O)N[C@@H](CCC(N)=O)C(=O)N[C@@H](CCC(=O)O)C(=O)N[C@@H](CCCNC(=N)N)C(=O)N[C@@H](C)C(=O)N[C@@H](CC(N)=O)C(=O)N[C@@H](C)C(=O)N[C@@H](CO)C(=O)N[C@@H](C)C(N)=O)C(C)C)C(C)C [CGEN-F12] (Ac-QHSLRQLLVLLRHLVQERANASA-NH2),capable of binding; also recorded: high affinity,capable of binding,capable of binding; also recorded: high affinity

# Second part, the compound after the results:
binding to immobilized Ang1 (in words) (recombinant human Ang1),binding to immobilized Ang2 (in words) (human Ang2),binding to immobilized Ang4 (in words) (human Ang4),Compound
none or low binding,none or low binding,none or low binding,"NEILKIHEKNSLLEHKILEMEGKHK (Ac-NEILKIHEKNSLLEHKILEMEGKHK-NH2) [CGEN-H7, amino acid residues 182-206 of angiopoietin 1]"
capable of binding,capable of binding,capable of binding,CC[C@H](C)[C@H](NC(=O)[C@H](CO)NC(=O)[C@H](C)NC(=O)[C@H](CC(C)C)NC(=O)[C@H](CCC(=O)O)NC(=O)[C@H](CCC(=O)O)NC(=O)[C@H](CCC(N)=O)NC(C)=O)C(=O)N[C@@H](CC(C)C)C(=O)N[C@@H](CO)C(=O)N[C@@H](CCCCN)C(=O)N[C@@H](CCCCN)C(=O)N[C@@H](C)C(=O)N[C@@H](CCCCN)C(=O)N[C@@H](CC(C)C)C(=O)N[C@@H](CC(C)C)C(=O)N[C@@H](CC(N)=O)C(=O)N[C@H](C(=O)N[C@@H](CC(C)C)C(=O)N[C@@H](CO)C(=O)N[C@@H](CCCNC(=N)N)C(=O)N[C@@H](CCC(N)=O)C(=O)N[C@@H](CO)C(=O)N[C@@H](C)C(=O)N[C@@H](C)C(=O)N[C@@H](CC(C)C)C(=O)N[C@H](C(=O)N[C@@H](CC(N)=O)C(=O)N[C@H](C(=O)N[C@@H](CCC(=O)O)C(=O)N[C@@H](CCCNC(=N)N)C(=O)NCC(=O)N[C@@H](CC(C)C)C(=O)N[C@@H](CCCNC(=N)N)C(=O)NCC(=O)N[C@H](C(=O)N[C@@H](CCCNC(=N)N)C(N)=O)C(C)C)[C@@H](C)CC)[C@@H](C)O)[C@@H](C)O [CGEN-F9] (Ac-QEELASILSKKAKLLNTLSRQSAALTNIERGLRGVR-NH2)
did not bind,not sufficiently strong,did not bind,"TDMEAQLLNQTSRMDAQM (Ac-TDMEAQLLNQTSRMDAQM-NH2) [CGEN-C6, amino acid residues 150-167 of angiopoietin 4]"
